In publication PMC7335206:

Tests used:
[1] = target: N-terminal transactivation domain (TAD) of the tumor suppressor protein p53, labeled with Alexa 488 and Alexa 594, biotinylated; test: FRET or BRET; single-molecule three-color FRET, CW donor excitation; biotinylated TAD immobilized on PEG-coated glass via NeutrAvidin, 100 nM NCBD in solution; 10 mM Tris pH 7, 10 mM NaCl, 23 °C; maximum likelihood analysis of photon trajectories, 8-state model with acceptor blinking
[2] = target: N-terminal transactivation domain (TAD) of the tumor suppressor protein p53, labeled with Alexa 488 and Alexa 594, biotinylated; test: FRET or BRET; single-molecule three-color FRET, CW donor excitation; biotinylated TAD immobilized on PEG-coated glass via NeutrAvidin, 25 nM NCBD in solution; 10 mM Tris pH 7, 0 mM NaCl, 23 °C; maximum likelihood analysis of photon trajectories, 8-state model with acceptor blinking
[3] = target: N-terminal transactivation domain (TAD) of the tumor suppressor protein p53, labeled with Alexa 488 and Alexa 594, biotinylated; test: FRET or BRET; single-molecule three-color FRET, CW donor excitation; biotinylated TAD immobilized on PEG-coated glass via NeutrAvidin, 200 nM NCBD in solution; 10 mM Tris pH 7, 30 mM NaCl, 23 °C; maximum likelihood analysis of photon trajectories, 8-state model with acceptor blinking

Kd [1]: 520 nM
kon [1]: 9.1e+08 M⁻¹ s⁻¹
Kd [2]: 123 nM
kon [2]: 2.04e+09 M⁻¹ s⁻¹
Kd [3]: 2480 nM
kon [3]: 5.2e+08 M⁻¹ s⁻¹
Substance: nuclear coactivator binding domain (NCBD) of the CREB binding protein (CBP), S2066C, labeled with CF680R (domain or fragment)
